In PMC2696313:

Target: Δ41-52 hPRL (human prolactin with residues 41-52 removed) (human) (UniProt P01236)
Assay: mass spectrometry

stoichiometry N: 2
Substance: Δ41-52 hPRL (human prolactin with residues 41-52 removed) (from UniProt P01236 29-227) (ligand)
